Reference: publication PMC8634867

target: C10A mutant of Arabidopsis thaliana cytochrome c1, soluble domain (Arabidopsis thaliana); assay: BLI; His6-tagged Cc1 (50 ug/mL) immobilised on Ni-NTA biosensors (Octet RED 96e); Cc at 0.3215-10 uM; 10 mM sodium phosphate pH 7.4, 0.01 uM rabbit serum albumin, 0.01% Triton X-100; both proteins reduced; wavelength shift at equilibrium fitted to a non-linear equation with a linear non-specific term; in duplicate

Row | Substance | Kd
1 | human cytochrome c K8Q acetyl-mimetic mutant (from UniProt P99999 1-105) (natural protein) | 99 nM
2 | human cytochrome c K53Q acetyl-mimetic mutant (from UniProt P99999 1-105) (natural protein) | 116 nM
3 | human cytochrome c, wild-type (from UniProt P99999 1-105) (natural protein) | 137 nM
